Drawing on a protein production outcome set (Wang et al. 2014), this text covers protein production for 21 sequences.

This data set is described as follows: label from the status in PepcDB records.

“MISTWHKNNNSPRLTVSARIVAKRQNTTYHNQPNAGDTSGAHGYHTTSSTTYYVTFQVESGDRIEMSVSGSEYGKLTEGDEGKLTFQGTRYLQFNMENLEHHHHHH”: the protein production result is “failed”.

For “MITGKRFKFILLTFIFAAGLFFTQAGILFAQDKPDALKLYRQGRSLDSIGRREDARAAYLSAIEICRNELKVNSKNMDSYAVYTWCLFRLGRYKDTELVCSDALKIGRDARIIETLAEAQFFLGNYKDSLRNMEMYIEMAPNGERISVAHFFVGEIYRNTKKYHKADIAYSISVHLEPSNSLWWYRLGIVREAAGEKEGAIAAYQTAVKLRPEFKEAAEALKRVKI”, the protein production entry is “failed”.

With “MITIKKQEIVKLEDVLHLYQAVGWTNYTHQTEMLEQALSHSLVIYLALDGDAVVGLIRLVGDGFSSVFVQDLIVLPSYQRQGIGSSLMKEALGNFKEAYQVQLATEETEKNVGFYRSMGFEILSTYDCTGMIWINREK”, the protein production entry is “not failed”.

For the sequence “MITKQDTIYEWIQNGQLEDALKALFQNIEEEPNTIENYINAGIVLADINEIEKAERFFQRAITIDDKNGAVYYNLANLYYDQGKYRDAIKLYQLASKYNMDKIDTNYMIGMSFNQLDAPTESLPYFMTAAELDKNQDAEVQFQYGLALCHLEMFNQAINQLKIVLDIDSKHVDALYNLGLATYMDTEDLDLAMSYFDKAISIDPNHLLSQHAKKTFEAIKNEEE”, the protein production entry is “failed”.

For the sequence “MITLARTLLLFACLLPSIHVKAEPSLQPHYKIATEADDVVTRVLFDAVSTEFGVSVEYINYASFDAILDAVANEDADFAANITYTDTRAERFSYSRPTNIEYTYLYGLSDSTLDDISRVGVPQNTIYSELIKQYHPELKQVPYKGHNEAVRLLQTGLVDGVVDAINQLKPMLLEGFDAKMLNDQISIKPVSIISKKGHHLEELDTFASFIHGEAVQKQLREQIALYQFELRRSALRDAIKLLPVDLKEPIRIKMESIFPYVVYNPDGTVQGMTADIVLQSCEILDLNCVIISEPNESWESMYRQFMKGEFDILAPLTVSRERHEFSYFPRPHYSPASVMVKRLGYKPNTYSHVSQLISERIGVVKDDFFDQMMTQLLPLKELERFNTQHDLIEALLKGEVDYIPMDTAMLNHFLRLSELVPIEQDTAIGEFYSSQLSIGLVANERGAMLAPYFSRAIAMLGVDKIVAQYDLRPDWRTALEYEVRLATQTQAVFLFVLVLAICVSLYLYRQSNTDNLTGLRNRRSLQVKYRQGVNKDLAILYLDINHFKQINDTYGHLAGDEVLQLLSLKIHRVWSGRSYRIGGDEFILLGYPTQIELSRAVQELSRLDVTDKLCAELKTVTISVGVSEKRKQHMSLEQALHLADEDMYVSKHSSRHYSGSSNYLVQS”, the protein production entry is given as “failed”.

As for “MITLEKEKVTVNPDIKVIKRDGRMVTFDSSKIYEAILKASETITPITPLIETKLEEIANRVVAEINDRFSHNIKIYEIQSIVEHELLEANEYAIAQEYINYRTKRDFERSQATDINFTINKLV”, the protein production entry is on record as “failed”.

As for “MITLSQRIFIILESAWRRRYLIVLPIILMPFIGLTVAKLAPKHYDSHTSMLIQETAKMNPFLEDLAVSTMLKERLSALQTLLHSRHILGSVAEERGYIHESMSPQAIDNEINKLSANLSVSMAGKDLIRIDYRANNPDGMKDTLEAVSRHFTEQLLAPERSSMKDSSKFLSDNIEFRRQELDAAEEKLAEFKSQENTVLPEMQITSLDRLTKLKQRLYERQAELAGAKKRLGSIDLQLSKTNPVIGKIEEQIIRIRGELTLLQAKYTPQHSKVQGKLRNLNRLEEERSRLLSQTQPGLSSEQLWDIASSNSVEDLAKAPPILLSQLEELQQATSKVDALTEETRVLESMIKDIELQASTFGQNEKVLYQLQRDLALKRELYNDLVERFEMAKLTRSLGVFEQEKRVKIIDRPYTPSGPSNLPTILYAIAGVIGGIGFGIGMAIIAELCDTSIRRKDEIATLSTSPVLSRIPPQPVKCFNLSEDTHSTTNNLLSSMSKAN”, the protein production entry is recorded as “failed”.

For the sequence “MITMTEVKGKTANESRVFKTSRVFPTDLNDHNTLFGGKILSEMDMVASISASRHSRKECVTASMDWVDFLHPVRSSDCVSYESFVIWTGRTSMEVFVKVVSEYLISGEKRIAATSFVTFVALSKENNPVPVPRVIPDTEEEKESHRIAVLRAEQRHIRKAESKKVATLLTF”, the protein production entry was “not failed”.

“MITRTVKAQLLAFATVTAVGVSYVGAEYTGLVDDVLGRGYTVRADFADSGGIFPGAEVTYRGVPVGRVGALRLTGSDGVSVALDIKDGVPRIPADTLAVVANRSAVGEQYVDLQPRTSHGPYLLDGSAIPRGSTRVPLPTTDLVLSLDRLVDSVGKDDLRVTVDELGKAFSGTGPNLSRLVDSGNALVESASESLPQTISLIEDSRKVLKTQADQGSSIKSFAHDLAALSAQLKSSDGDLRKLIGNATPAAQQVNSLLKSTGPRLSVLLANLISGGQVTLARLPGVEQSLVTFPALVAGSYTVVPGDGTTHFGLVVNADDPPPCTQGYGTTRRDPSDTSTREANTDARCTAPRGNKTSVRGAQNAPGASTTSGGTNQAAYVTPYDPETGTATGPDGRPVEIGSTGGQQAVFGRESWQWLLVGPMA”: the protein production entry is listed as “failed”.

“MITSNLFDLRRWRANMSAMRFFALTSAALPLALMLLTSSFPAAAAEKSAAATKKDVIVEQADANNSPKQHLDQLFSQLKRERDPEKASGIANEIRMEWNDSGSATVNLLMQWADKAIEEKRNPAALDFLDEAIALKPDYAESWNRRATLNFVMGNYRKSMSDIERVLDLEPRHFGALSGMAAILSNSGNDQLTLKAWERFLDIYPAERTAQEQANTLAEKLAGNRT”: the protein production entry is “failed”.

Take “MITTFKCVLVTKNIRMNERLMNSQSGYLRKAVNHPINWYTWSNDVFEIAKKENKPILIDVGAAWCHWCNVMDEDTYSNPEIAKIVNENFIPVKVDRDEMPDLDRLLQNAAMAITGESGWPLTIFMTPEGKVFFGGTYFPPEDRYGRIGFKRLLLEILRIWREDRNQILLSS”: the protein production entry is listed as “failed”.

Take “MITTIPWKATQAQPNAFPERQALMPVWEGEAIPQAEWQQCWQQAAINVLKEDGLAYFHIPFCASHCIFCGFYRNAWKEDYSKVYTDKLIEELAYEASIRQGNGKIQAVYFGGGTPTALATEDLVRLIKACYQYLPLATDCEFTLEGRISHFDIEKARACVEAGVNRISIGVQTFNSAIRKRLGRKHSGEEAYAYLQALCELDAVIVADLIFGLPNQTDEVWANDINVASGLPLSGLDIYAFNNYPFLPINKMIEHGTLPPAASFEVQAQHYAYAVENLQQAGWTQVSNNHFAFPGRGERNRYNTLVKSNMPCLAFGSGAGGNFSGYSFQVDTTLQTYLDTPADKKALSYLSKQGPNKQLLGIVQHDLELGYLDIKLFRDNPKAMKLLMQWQQLSLLNIDANGIACLNISGRYWSPTLIRKLMLTLPTHDEKEHKMVKLSEQQLAELRQSLAENPGQILEMVAGMKQCSFEEVISCLPQEMITKTDGSRFVEIMQALATLEDAVTFIAHTADAIVEVTGKLPSGQIGRGFYNFDHTHEGGVHGHLRYENCAAIYLLERPFMGKHTVSLNFVNHQGGAMFKIFVGRDAERNLRQNQIDFMRQLIKG”: the protein production result is on record as “failed”.

For “MITVLILRCIMVKSTTRKSAKSDRRRYNRIARFYDLFETPMELMNFRKWRKMLFDLIKAEKGLVLEIGAGTGKNIPHYPSNVVALDISEKMLERAVRRAKESGKKVDFLLADAENLPFRSNSFDVVFTTFVFCSVDDPVRGLREAFRVLKKGGRAYFLEHMLPKSRFLHPLFNLLNPIFRAFGPEINRRTDENIQRAGFQIVKEYMLFGSVFRLIVAEKPLDSVDEASGYSLKRSESSDSSNFRRFIGQSLLPLRLTQLLR”, the protein production entry was “failed”.

With “MIVEVLIRVFFLICTAALGWGAGYILKLSSKEISSLLVYVISPFVIFVSILQSPADWTYFAYSLGALLTASVAAFLAYGLARMIWSDGRVNLFSFAAGTGNTGYFALPLAFALFNAQQIAIAVFIIIGINIYEFTVGYFIAAKGTFKTTDSLQKIVRLPILYAIILGMTFKKWGIDVGATLLSAMSNFKGAYSVLGMMVIGVTLASYQKIKIDWGFLIATLTWKHLIYPAVGVLIFYFITPVSIDTLAVIVMMLATPMAANTVVVANTLNLYPEKAAFSVMVSTFLAVVTVPLAIVWVTRLSR”, the protein production result is given as “failed”.

Take “MIVKEDSVEAVGAQLKVYHQQYQDKSREYDQLYEEYTRTSQELQMKRTAIEAFNETIKIFEEQGQTQEKCSKEYLERFRREGNEKEMQRILLNSERLKSRIAEIHESRTKLEQQLRAQASDNREIDKRMNSLKPDLMQLRKIRDQYLVWLTQKGARQKKINEWLGIKNETEDQYALMEDLEHHHHHH”: the protein production entry was “failed”.

Consider “MIVPYSVEDILKDGCFLERAEIDRLLDRLRTKKNLILQGPPGTGKTWLAKRLAFALMGQKDDSKVRAVQFHPNLSYEDFVRGWRPTGEGKLSLADGVFMEAIKAASKDPSSKFVVVIEEINRGNPAQIFGELLTLLEAGKRTPNEALELCYPDADGKRRPVHIPENLYVVGTMNIADRSLALVDLALRRRFAFVGLEPRLGQVWRDWVVKECAVDPLEHHHHHH”, for which the protein production entry is given as “failed”.

For the sequence “MIVRGGGDLATGVIQKLWHVGFKILVLETECPLAIRRTVSVCDAIFQKEQRVEDLVAVRITSLKDCAKCWQQNKLPVFVDQTASAIQQLKPLIVIDAILAKKNLGTHRGMAPITIALGPGFSAPQDVDVVIETMRGHRLGRLYFEGTALPNTGIPGEIGGKSAERVVHAPASGQVTHLKNIGDLVLKGEALFLIDQVPVYSPLTGTLRGLISEKVTCYQGLKCADVDPRPVEKVDCLTISDKARALGGAVLEAIFMIGRRKNVLLEHHHHHH”, the protein production entry is on record as “not failed”.

“MIVRMRSCAQAAKVAEATGGVQLAGKPKPDGTPTFSRYVEIGVDFEAHRPVVESVSVLFELYDGDANSYAATGGPGAQLPSGWMVTAAKFEVEWPADPQRAGLVRSHFGARRKAFNWGLAQVKADLDAKAADPAHESVDWDLKSLRWAWNRAKDDVAPWWAENSKECYSSGLADLAQGLANWKAGKNGTRKGRRVGFPRFKSGRRDPGRVRFTTGTMRIEDDRRTITVPVIGPLRAKENTRRVQRHLVSGRAQILNMTLSQRWGRLFVAVCYALRTPTTRSPLTQPTVRAGMDLGVRTLATVATLDTATGEQTIIEYPNPAPLKATLVARRRAGRELSRRIPGSHGHRAVKAKLARLDRRCVHLRREAAHQLTTELAGTYGQVVIEDLDVAAMKRSMRRRAFRRSVSDAAMGLVAPQLAYKTAKCSGVLTVADRWFASSQIHHGCTSPDGTPCRLQGKGRIDKHLLCPVTGEVVDRDRNAALNLRDWPDNASRGPVGTTAPSAPGPTTTVGTGHGADTGSSGAGGASVRPRPRRAGRGEAKTQTPQGDAA”: the protein production entry is reported as “failed”.

Take “MIWQLIDKHRQSFGVEPLCRVLQVSPSAYRRHAARLRDRSRRSARAIRDEELAVQIHRVWQENYEVYGARKVWRQMHREHQVVARCTVERLMREMGLCGVTRGKTVKTTQPDPDNANPRDLVKRQFTAERPNQLWVADFTFVSTWQGFAYVAFIVDVYSRFIVGWRVSRHMRTEFVLDALEQALHTRRPEPHRLVHHSDRGSQYLSIRYSERLGEAGIEPSVGNTGDSYDNALAETINGLYKTELIHKRGPWKSVDSLEWETLKWVTWFNHQRLLEPIGNRPPAEFEALYEQSQATISVAA”: the protein production result is “failed”.

Take “MIYKITLTDISLAQAFISIPQDVIALDLSNNLLGSKSCVDLLVNIADCIPAGVTSLDLSSNGLRLTQVSLVTPKHVTSLNLCFNPLHEISIDGLEWLKDSLAHIQIIYLSYDMVNNMSREQRQAFRAVIPNIQTIILVDKNGKEIGPSHTAKIANLISELGGGNPEVPSLLNQCTFFVKTQGINIDKAYIPEELKKRIHDCNPL”: the protein production entry was “failed”.

For the sequence “MIYPDELAVITSKFELELSETDRNKVHENVSTVSGRDFFMSIFEGLKMKDKILEYWDFRSSDYHTEYAHCMDEEMDVWKSVFSEILLTDKKVRAVEVGTGPGILAISLAAMGHDVTGVDLSENMLEKAAANAREKGVNVLLMRGDAEDIPLKDGEYDFVLSKYLLWTLPQPDKFLGECCRLLKDGGIMMIIDGLWFHNPDGTEKKSSRYERFDELYGDVKPNLPFAKENTPERIADLAESHGFEDLTWRFLDDYDAFLERNDPSGHAAAYIKPPHMILAKKKVRNS”, the protein production entry is reported as “failed”.
